Test results as given in the supplement of paper PMC10065799, “High-throughput profiling of sequence recognition by tyrosine kinases and SH2 domains using bacterial peptide display” (eLife, 2023).

Tests used:
c-Src SH2 = assay: SH2 binding enrichment of the phosphorylated peptide, bacterial display (enrichment ratio); higher = better substrate or ligand; peptides without Tyr show the background
Grb2 SH2 = Grb2 SH2 (UniProt P62993); assay: as above
SHP2-C SH2 = assay: as above
Hck = Hck (UniProt P08631); assay: phosphorylation enrichment, bacterial display (enrichment ratio); higher = better substrate or ligand; peptides without Tyr show the background
FGFR1 = FGFR1 (UniProt P11362); assay: as above
EPHB1 = EPHB1 (UniProt P54762); assay: as above
Jak2 = Jak2 (UniProt O60674); assay: as above
AncSZ = assay: as above
Fer (mouse) = assay: as above
Fyn = Fyn (UniProt P06241); assay: as above
c-Abl (mouse) = assay: as above
c-Src = assay: as above
EPHB2 = EPHB2 (UniProt P29323); assay: as above
Fes = Fes (UniProt P07332); assay: as above
MERTK = MERTK (UniProt Q12866); assay: as above
FGFR3 = FGFR3 (UniProt P22607); assay: as above
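Wherever SH2 binding enrichment of the phosphorylated peptide, bacterial display is given: peptide library displayed on the E. coli surface as eCPX fusions, selected cells deep-sequenced, score is each peptide's frequency after selection divided by its frequency in the input.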
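Wherever phosphorylation enrichment, bacterial display is given: 11-residue human phosphosite peptides and single-mutation variants displayed on the E. coli surface, counted by deep sequencing, each peptide's frequency after selection divided by its frequency in the unselected input library; frequency after pTyr selection over input frequency; kinase dosed for 20-30% of maximal phosphorylation in three min.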

FGFR1, sequence (P11362 whole entry, looked up): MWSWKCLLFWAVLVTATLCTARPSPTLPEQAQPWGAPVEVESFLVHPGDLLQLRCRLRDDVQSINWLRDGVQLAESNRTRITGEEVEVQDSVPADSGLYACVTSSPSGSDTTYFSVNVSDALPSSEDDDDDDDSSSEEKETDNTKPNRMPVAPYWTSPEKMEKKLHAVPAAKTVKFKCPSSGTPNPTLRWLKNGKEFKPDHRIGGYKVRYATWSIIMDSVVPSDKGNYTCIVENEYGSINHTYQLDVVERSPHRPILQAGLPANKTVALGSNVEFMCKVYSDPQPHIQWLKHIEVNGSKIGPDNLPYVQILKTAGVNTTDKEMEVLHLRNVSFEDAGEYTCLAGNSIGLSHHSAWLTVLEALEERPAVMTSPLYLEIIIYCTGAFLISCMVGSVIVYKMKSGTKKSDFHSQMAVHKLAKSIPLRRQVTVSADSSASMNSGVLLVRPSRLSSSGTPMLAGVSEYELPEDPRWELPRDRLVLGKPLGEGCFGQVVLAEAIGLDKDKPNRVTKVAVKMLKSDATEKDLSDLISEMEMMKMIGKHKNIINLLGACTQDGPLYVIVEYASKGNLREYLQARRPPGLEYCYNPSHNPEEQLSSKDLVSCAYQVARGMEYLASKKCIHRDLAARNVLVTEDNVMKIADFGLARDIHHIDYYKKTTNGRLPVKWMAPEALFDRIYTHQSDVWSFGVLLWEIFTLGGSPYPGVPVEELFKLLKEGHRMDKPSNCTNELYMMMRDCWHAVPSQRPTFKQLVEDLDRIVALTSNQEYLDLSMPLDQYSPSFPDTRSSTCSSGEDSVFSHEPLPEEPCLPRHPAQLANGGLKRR
EPHB2, sequence (P29323 whole entry, looked up): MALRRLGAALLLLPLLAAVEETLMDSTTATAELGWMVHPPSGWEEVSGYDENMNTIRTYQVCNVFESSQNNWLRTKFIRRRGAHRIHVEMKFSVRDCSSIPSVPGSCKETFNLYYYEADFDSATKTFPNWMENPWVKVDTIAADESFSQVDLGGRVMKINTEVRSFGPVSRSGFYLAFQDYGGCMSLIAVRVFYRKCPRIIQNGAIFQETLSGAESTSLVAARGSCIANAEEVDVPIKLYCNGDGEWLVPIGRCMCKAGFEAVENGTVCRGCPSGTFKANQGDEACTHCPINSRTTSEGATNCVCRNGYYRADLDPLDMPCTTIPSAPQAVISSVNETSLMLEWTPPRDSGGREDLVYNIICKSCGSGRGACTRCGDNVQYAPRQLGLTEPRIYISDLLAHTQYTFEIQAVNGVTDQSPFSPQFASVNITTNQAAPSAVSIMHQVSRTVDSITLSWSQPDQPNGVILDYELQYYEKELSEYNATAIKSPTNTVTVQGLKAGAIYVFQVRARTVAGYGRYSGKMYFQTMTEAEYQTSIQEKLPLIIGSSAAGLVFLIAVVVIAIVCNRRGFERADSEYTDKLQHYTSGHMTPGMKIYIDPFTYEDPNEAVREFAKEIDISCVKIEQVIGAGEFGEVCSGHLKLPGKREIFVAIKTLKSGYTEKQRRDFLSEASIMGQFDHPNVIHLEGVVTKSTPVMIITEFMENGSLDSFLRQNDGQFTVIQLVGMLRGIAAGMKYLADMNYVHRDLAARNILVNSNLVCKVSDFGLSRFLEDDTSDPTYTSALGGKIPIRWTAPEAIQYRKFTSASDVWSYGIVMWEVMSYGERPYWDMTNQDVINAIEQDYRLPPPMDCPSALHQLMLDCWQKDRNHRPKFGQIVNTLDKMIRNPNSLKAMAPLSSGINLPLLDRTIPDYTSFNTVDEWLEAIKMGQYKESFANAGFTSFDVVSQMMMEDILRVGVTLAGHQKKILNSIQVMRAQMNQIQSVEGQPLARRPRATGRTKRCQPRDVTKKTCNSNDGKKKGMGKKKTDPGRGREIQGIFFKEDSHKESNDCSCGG
EPHB1, sequence (P54762 whole entry, looked up): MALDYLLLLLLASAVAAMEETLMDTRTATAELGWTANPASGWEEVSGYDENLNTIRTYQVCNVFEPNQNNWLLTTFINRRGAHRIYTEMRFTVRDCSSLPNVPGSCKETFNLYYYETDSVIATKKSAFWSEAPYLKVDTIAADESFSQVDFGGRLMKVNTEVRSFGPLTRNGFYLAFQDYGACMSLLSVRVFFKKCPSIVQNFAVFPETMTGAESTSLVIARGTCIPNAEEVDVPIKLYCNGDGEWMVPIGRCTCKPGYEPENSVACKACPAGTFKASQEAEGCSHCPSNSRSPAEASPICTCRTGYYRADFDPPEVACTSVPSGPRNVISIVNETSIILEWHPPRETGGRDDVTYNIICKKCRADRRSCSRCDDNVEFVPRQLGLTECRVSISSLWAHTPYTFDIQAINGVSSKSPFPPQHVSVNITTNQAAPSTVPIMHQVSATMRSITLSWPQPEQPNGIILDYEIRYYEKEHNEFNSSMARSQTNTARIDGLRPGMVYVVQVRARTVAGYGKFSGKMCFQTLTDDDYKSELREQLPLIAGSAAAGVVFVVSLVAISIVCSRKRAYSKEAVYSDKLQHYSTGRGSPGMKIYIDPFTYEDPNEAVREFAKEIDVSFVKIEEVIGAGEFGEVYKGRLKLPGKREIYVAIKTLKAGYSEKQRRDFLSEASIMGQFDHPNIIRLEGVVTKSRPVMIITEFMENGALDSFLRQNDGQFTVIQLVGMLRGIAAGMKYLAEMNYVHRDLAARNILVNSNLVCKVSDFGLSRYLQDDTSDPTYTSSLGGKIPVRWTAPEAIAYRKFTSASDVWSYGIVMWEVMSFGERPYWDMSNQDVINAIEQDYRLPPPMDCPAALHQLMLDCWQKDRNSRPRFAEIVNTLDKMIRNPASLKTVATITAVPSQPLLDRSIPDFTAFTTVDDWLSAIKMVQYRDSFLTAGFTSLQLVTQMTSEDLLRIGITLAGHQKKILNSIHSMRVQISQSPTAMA
Hck, sequence (P08631 whole entry, looked up): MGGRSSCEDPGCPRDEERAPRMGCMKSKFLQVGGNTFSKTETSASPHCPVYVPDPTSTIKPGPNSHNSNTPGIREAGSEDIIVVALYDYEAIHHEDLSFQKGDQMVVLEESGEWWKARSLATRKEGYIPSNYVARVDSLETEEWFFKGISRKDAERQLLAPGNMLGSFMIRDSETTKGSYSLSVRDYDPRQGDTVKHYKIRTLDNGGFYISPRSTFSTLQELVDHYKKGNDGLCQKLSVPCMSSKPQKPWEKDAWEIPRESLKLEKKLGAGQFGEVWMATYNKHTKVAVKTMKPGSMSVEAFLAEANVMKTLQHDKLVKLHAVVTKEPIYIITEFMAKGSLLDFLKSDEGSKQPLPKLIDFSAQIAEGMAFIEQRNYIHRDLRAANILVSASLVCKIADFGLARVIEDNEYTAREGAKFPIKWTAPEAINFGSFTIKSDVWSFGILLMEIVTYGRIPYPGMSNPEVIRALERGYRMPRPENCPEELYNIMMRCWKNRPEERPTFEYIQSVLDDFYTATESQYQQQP
Jak2, sequence (O60674 whole entry, looked up): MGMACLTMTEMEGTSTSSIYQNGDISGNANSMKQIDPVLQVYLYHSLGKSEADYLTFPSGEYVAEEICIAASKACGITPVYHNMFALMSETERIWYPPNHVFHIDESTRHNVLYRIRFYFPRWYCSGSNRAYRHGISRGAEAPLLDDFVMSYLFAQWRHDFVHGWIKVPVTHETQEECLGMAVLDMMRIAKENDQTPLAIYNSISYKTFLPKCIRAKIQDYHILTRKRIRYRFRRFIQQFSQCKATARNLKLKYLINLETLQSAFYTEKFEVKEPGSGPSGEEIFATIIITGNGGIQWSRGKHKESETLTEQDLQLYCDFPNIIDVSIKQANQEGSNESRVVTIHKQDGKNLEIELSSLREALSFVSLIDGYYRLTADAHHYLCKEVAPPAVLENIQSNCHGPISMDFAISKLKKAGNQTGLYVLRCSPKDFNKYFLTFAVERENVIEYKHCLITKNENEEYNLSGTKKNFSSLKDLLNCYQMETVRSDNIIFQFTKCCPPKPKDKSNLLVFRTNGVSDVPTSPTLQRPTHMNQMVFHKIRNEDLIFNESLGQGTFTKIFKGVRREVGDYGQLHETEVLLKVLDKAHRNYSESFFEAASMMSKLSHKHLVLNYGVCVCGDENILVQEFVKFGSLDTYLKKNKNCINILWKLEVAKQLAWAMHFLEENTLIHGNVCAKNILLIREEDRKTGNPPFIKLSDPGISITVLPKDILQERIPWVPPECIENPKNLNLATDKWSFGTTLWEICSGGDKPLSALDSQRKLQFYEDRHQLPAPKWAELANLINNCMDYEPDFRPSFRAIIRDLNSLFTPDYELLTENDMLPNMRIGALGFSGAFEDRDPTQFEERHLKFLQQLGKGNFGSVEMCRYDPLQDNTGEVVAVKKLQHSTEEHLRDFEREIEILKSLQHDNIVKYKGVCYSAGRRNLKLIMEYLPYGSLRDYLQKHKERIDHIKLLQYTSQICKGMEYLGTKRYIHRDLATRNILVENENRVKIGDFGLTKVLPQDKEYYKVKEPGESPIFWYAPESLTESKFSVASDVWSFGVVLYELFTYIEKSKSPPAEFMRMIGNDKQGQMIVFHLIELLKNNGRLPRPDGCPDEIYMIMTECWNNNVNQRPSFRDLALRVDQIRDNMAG
Fyn, sequence (P06241 whole entry, looked up): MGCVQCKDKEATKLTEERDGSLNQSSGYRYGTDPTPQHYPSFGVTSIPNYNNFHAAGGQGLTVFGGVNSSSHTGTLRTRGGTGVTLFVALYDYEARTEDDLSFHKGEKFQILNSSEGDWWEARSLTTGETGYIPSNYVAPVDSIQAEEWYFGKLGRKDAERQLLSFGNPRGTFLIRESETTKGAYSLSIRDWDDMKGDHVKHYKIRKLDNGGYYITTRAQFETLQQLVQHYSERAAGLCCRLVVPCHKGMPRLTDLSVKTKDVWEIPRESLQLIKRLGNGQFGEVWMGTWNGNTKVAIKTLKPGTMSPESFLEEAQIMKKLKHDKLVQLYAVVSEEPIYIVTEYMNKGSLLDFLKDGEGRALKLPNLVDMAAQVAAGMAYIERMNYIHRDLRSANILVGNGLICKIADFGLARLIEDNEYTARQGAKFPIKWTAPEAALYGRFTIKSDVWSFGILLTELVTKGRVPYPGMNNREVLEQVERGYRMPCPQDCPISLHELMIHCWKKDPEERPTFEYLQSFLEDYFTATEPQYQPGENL

Sequence	SH2 binding enrichment (c-Src SH2)	SH2 binding enrichment (Grb2 SH2)	SH2 binding enrichment (SHP2-C SH2)	phosphorylation enrichment (Hck)	phosphorylation enrichment (FGFR1)	phosphorylation enrichment (EPHB1)	phosphorylation enrichment (Jak2)	phosphorylation enrichment (AncSZ)	phosphorylation enrichment (Fer (mouse))	phosphorylation enrichment (Fyn)	phosphorylation enrichment (c-Abl (mouse))	phosphorylation enrichment (c-Src)	phosphorylation enrichment (EPHB2)	phosphorylation enrichment (Fes)	phosphorylation enrichment (MERTK)	phosphorylation enrichment (FGFR3)
ADLVQYFMEHH [PTPN11_Y80_E76D_YF]	0.612	0.902	0.961	0.53	0.501	0.654	1	1.1	0.46	0.784	0.8	0.517	0.545	1.06	0.394	0.708
EDGRLYAVKRS [PKMYT1_Y136]	0.525	0.891	0.833	0.612	0.465	0.417	0.728	0.753	0.444	0.486	0.692	0.485	0.496	0.856	0.433	0.633
EAVLHYKHQNQ [MTOR_Y1804]	0.677	0.904	0.549	0.37	0.338	0.405	0.641	0.632	0.492	0.428	0.589	0.364	0.403	0.799	0.363	0.453
GREEFYSTHPH [LRRK2_Y1402]	0.376	0.845	0.607	0.679	0.505	0.385	0.483	0.576	0.528	0.42	0.418	0.421	0.482	0.575	1.52	0.465
GRSTFYWPRPR [GAGE12J_Y10_YF]	0.563	0.844	0.64	0.713	0.48	0.446	0.644	0.831	0.463	0.474	0.573	0.501	0.472	0.602	0.538	0.47
QDRDLYPCPGT [RLF_Y671]	0.644	1.11	0.717	0.429	0.484	0.71	1.1	1.05	0.687	0.936	0.863	0.613	0.693	1.37	0.751	0.878
KDHLDYKFQPR [SOX9_Y172_P170L_YF]	0.47	0.823	0.685	0.352	0.498	0.475	0.922	0.73	0.392	0.431	0.642	0.504	0.478	1.02	0.409	0.531
CDTKLYTSAPN [DNTTIP2_Y427]	0.387	0.808	0.607	0.776	0.595	0.626	0.936	1	0.694	0.606	0.922	0.65	0.791	1.11	0.679	0.764
ERCAQYKKDGA [ALDOA_Y138]	0.635	1.06	0.623	0.396	0.438	0.409	0.622	0.612	0.341	0.394	0.496	0.391	0.487	0.574	0.368	0.484
MVIPNYSSWTE [UROC1_Y185_R188W]	0.735	0.864	0.812	0.862	1.11	11.1	1.16	1.31	1.78	0.689	0.999	0.719	13.5	1.23	3.74	1.07
GNLQENLTRHV [TGFBR2_Y336_Y336N]	0.474	0.698	0.601	0.374	0.358	0.478	0.447	0.461	0.366	0.427	0.432	0.337	0.422	0.558	0.368	0.418
RPFRPYIIRGM [LRP5_Y1531_YF]	0.482	0.735	0.625	0.655	1.03	0.633	0.748	1.14	0.456	0.611	0.532	0.647	0.709	1.2	0.781	0.88
DVFLKHLNFAT [PDE6B_Y212_Y212H]	0.52	0.842	0.884	0.478	0.483	0.547	0.799	0.785	0.414	0.507	0.552	0.374	0.545	0.914	0.466	0.66
DLNATYCTIQG [U2SURP_Y634_R635C]	1.2	0.982	0.7	7.17	1.06	7.15	0.845	1.31	1	9.64	0.78	5.32	5.72	1.07	2.36	0.954
FAELVYTSFWH [ASS1_Y322_G324S]	0.624	0.907	0.612	7.37	5.31	2.99	2.11	2.31	8.86	8.65	14	6.82	3.44	1.89	7.38	4.28
CSTIHYNFMCN [TP53_Y234_T230S_YF]	2.44	1.4	1.91	0.375	0.458	0.369	0.573	1.2	0.423	0.476	0.461	0.468	0.54	0.693	0.385	0.418
QNTGVYFDLFG [PTPN11_Y62_D61V_YF]	0.661	0.731	0.688	3.34	12.8	2.93	1.95	2	0.831	3.82	0.912	2.02	1.33	1.52	3.19	11.6

Sequence	SH2 binding enrichment (c-Src SH2)	SH2 binding enrichment (Grb2 SH2)	SH2 binding enrichment (SHP2-C SH2)	phosphorylation enrichment (Hck)	phosphorylation enrichment (FGFR1)	phosphorylation enrichment (EPHB1)	phosphorylation enrichment (Jak2)	phosphorylation enrichment (AncSZ)	phosphorylation enrichment (Fer (mouse))	phosphorylation enrichment (Fyn)	phosphorylation enrichment (c-Abl (mouse))	phosphorylation enrichment (c-Src)	phosphorylation enrichment (EPHB2)	phosphorylation enrichment (Fes)	phosphorylation enrichment (MERTK)	phosphorylation enrichment (FGFR3)
ERKQTYGSCRK [LACTB_Y473]	0.971	1.09	1.27	0.403	0.365	0.343	0.392	0.518	0.319	0.339	0.5	0.334	0.406	0.636	0.359	0.381
PLDGEYVTLQI [TP53_Y327_F328V]	0.349	0.615	0.498	0.922	1.75	0.802	1.37	1.56	0.609	0.984	1.17	0.919	0.789	1.32	0.477	1.57
TEFSQYMRRKN [MAX_Y73_I71S_YF]	0.37	0.608	0.279	0.715	0.718	0.538	0.727	0.76	0.516	0.647	0.836	0.735	0.625	0.901	0.727	0.626
KDFTIYNPNLL [VANGL1_Y290]	0.511	0.703	0.537	1.58	0.434	0.419	0.815	0.722	0.599	0.787	0.71	1.2	0.42	0.835	0.478	0.518
TEYIQYVRRKN [MAX_Y73_M74V]	0.463	0.834	0.64	0.589	0.528	0.465	0.548	0.712	0.454	0.615	0.875	0.657	0.425	0.573	0.647	0.488
QEIATYRRQLE [KRT14_Y415_L418Q]	0.593	0.768	0.332	0.559	0.65	0.75	0.976	1.11	0.601	0.83	0.773	0.583	1.27	1.01	0.445	0.808
CKLYQYYLDHL [ATRX_Y1849]	0.391	0.731	0.523	0.698	1.44	2.18	1.54	1.74	0.758	0.587	1.17	2.05	1.54	1.65	2.12	1.54
FRSSLYLLMET [MYO5C_Y633]	0.855	1.3	1.16	0.576	0.724	0.804	1.29	1.24	0.687	0.473	0.896	0.521	0.591	1.37	1.46	1.16
VDSTEYEVASQ [SLC7A7_Y7]	0.545	0.946	0.932	0.549	0.544	0.632	1.04	1.25	0.598	0.499	0.825	0.514	0.646	1.16	0.436	0.776
SENFTYIWWLN [PSG4_Y271_K267E_YF]	0.439	0.715	0.563	0.559	0.543	0.73	1.46	1.47	0.674	0.513	0.96	0.355	0.771	1.59	0.404	1.03
LLASGYDSPIN [ABLIM1_Y638_R637G]	1.84	0.615	0.653	0.783	0.859	0.764	0.737	1.33	0.423	0.529	1.03	0.556	0.825	1.28	0.52	1.09
PLDGEHFTLQI [TP53_Y327_Y327H]	0.451	0.644	2.55	0.786	0.587	0.577	1.43	1.62	0.646	0.668	1.19	0.605	0.632	1.87	0.465	0.885
TVETKYDNISR [SETDB2_Y477]	3.03	0.959	0.769	0.477	0.545	0.71	0.667	0.72	0.433	0.519	0.643	0.461	0.379	0.745	0.393	0.553
LIFTNYEVGKD [GSTP1_Y112_A114V_YF]	0.739	0.887	0.784	1.1	1.17	1.58	1.94	2.14	1.17	1.18	1.3	0.825	1.78	2.21	0.983	1.46
PVQAADQKVVA [HBB_Y131_Y131D]	0.388	0.731	0.733	0.576	0.654	0.508	0.893	0.918	0.482	0.62	0.781	0.605	0.718	1.18	0.593	0.816
KLQKYYRQNPD [EHHADH_Y683]	0.503	0.948	0.694	0.448	0.413	0.765	0.474	0.565	0.417	0.348	0.482	0.42	0.464	0.591	0.371	0.419
